Measurements: patent publication US20230002496A1 (STAIDSON BEIJING BIOPHARMACEUTICALS, published 2023)

B1: E35-VL93D-IG4 (antibody, IgG4, V domains shown)
VH: QMQLVQSGAEVKKPGASVKVSCKVSGYTLTELSIHWVRQAPGKGLEWMGGFDPEDGETIYAQKFQGRVTMTGDTSTDTAYLELSSLRSEDTALYYCATGRYTSLATTYGFDYWGQGTLVTVSS
VL: EIVMTQSPATLSLSPGERATLSCRASQSVSSYLAWYQQKPGQAPRLLIYGASSRATGIPDRFSGSGSGTDFTLTISRLEPEDFAVYYCQQYDDWPYTFGQGTKLEIK
B2: E35-VH28E-IG4 (antibody, IgG4, V domains shown)
VH: QMQLVQSGAEVKKPGASVKVSCKVSGYELTELSIHWVRQAPGKGLEWMGGFDPEDGETIYAQKFQGRVTMTGDTSTDTAYLELSSLRSEDTALYYCATGRYTSLATTYGFDYWGQGTLVTVSS
VL: EIVMTQSPATLSLSPGERATLSCRASQSVSSYLAWYQQKPGQAPRLLIYGASSRATGIPDRFSGSGSGTDFTLTISRLEPEDFAVYYCQQYDNWPYTFGQGTKLEIK
B3: E35-VH28H-VL93L-IG4 (antibody, IgG4, V domains shown)
VH: QMQLVQSGAEVKKPGASVKVSCKVSGYHLTELSIHWVRQAPGKGLEWMGGFDPEDGETIYAQKFQGRVTMTGDTSTDTAYLELSSLRSEDTALYYCATGRYTSLATTYGFDYWGQGTLVTVSS
VL: EIVMTQSPATLSLSPGERATLSCRASQSVSSYLAWYQQKPGQAPRLLIYGASSRATGIPDRFSGSGSGTDFTLTISRLEPEDFAVYYCQQYDLWPYTFGQGTKLEIK
B4: E35-VH28H-IG4 (antibody, IgG4, V domains shown)
VH: QMQLVQSGAEVKKPGASVKVSCKVSGYHLTELSIHWVRQAPGKGLEWMGGFDPEDGETIYAQKFQGRVTMTGDTSTDTAYLELSSLRSEDTALYYCATGRYTSLATTYGFDYWGQGTLVTVSS
VL: EIVMTQSPATLSLSPGERATLSCRASQSVSSYLAWYQQKPGQAPRLLIYGASSRATGIPDRFSGSGSGTDFTLTISRLEPEDFAVYYCQQYDNWPYTFGQGTKLEIK
B5: E35-scFv LS31T (scFv, V domains shown)
VH: QMQLVQSGAEVKKPGASVKVSCKVSGYTLTELSIHWVRQAPGKGLEWMGGFDPEDGETIYAQKFQGRVTMTGDTSTDTAYLELSSLRSEDTALYYCATGRYTSLATTYGFDYWGQGTLVTVSS
VL: EIVMTQSPATLSLSPGERATLSCRASQSVSTYLAWYQQKPGQAPRLLIYGASSRATGIPDRFSGSGSGTDFTLTISRLEPEDFAVYYCQQYDNWPYTFGQGTKLEIK
B6: E35-scFv LQ27V (scFv, V domains shown)
VH: QMQLVQSGAEVKKPGASVKVSCKVSGYTLTELSIHWVRQAPGKGLEWMGGFDPEDGETIYAQKFQGRVTMTGDTSTDTAYLELSSLRSEDTALYYCATGRYTSLATTYGFDYWGQGTLVTVSS
VL: EIVMTQSPATLSLSPGERATLSCRASVSVSSYLAWYQQKPGQAPRLLIYGASSRATGIPDRFSGSGSGTDFTLTISRLEPEDFAVYYCQQYDNWPYTFGQGTKLEIK
B7: E35-scFv LQ27F (scFv, V domains shown)
VH: QMQLVQSGAEVKKPGASVKVSCKVSGYTLTELSIHWVRQAPGKGLEWMGGFDPEDGETIYAQKFQGRVTMTGDTSTDTAYLELSSLRSEDTALYYCATGRYTSLATTYGFDYWGQGTLVTVSS
VL: EIVMTQSPATLSLSPGERATLSCRASFSVSSYLAWYQQKPGQAPRLLIYGASSRATGIPDRFSGSGSGTDFTLTISRLEPEDFAVYYCQQYDNWPYTFGQGTKLEIK
B8: E35-scFv LQ27R (scFv, V domains shown)
VH: QMQLVQSGAEVKKPGASVKVSCKVSGYTLTELSIHWVRQAPGKGLEWMGGFDPEDGETIYAQKFQGRVTMTGDTSTDTAYLELSSLRSEDTALYYCATGRYTSLATTYGFDYWGQGTLVTVSS
VL: EIVMTQSPATLSLSPGERATLSCRASRSVSSYLAWYQQKPGQAPRLLIYGASSRATGIPDRFSGSGSGTDFTLTISRLEPEDFAVYYCQQYDNWPYTFGQGTKLEIK
B9: E35-scFv LS31R (scFv, V domains shown)
VH: QMQLVQSGAEVKKPGASVKVSCKVSGYTLTELSIHWVRQAPGKGLEWMGGFDPEDGETIYAQKFQGRVTMTGDTSTDTAYLELSSLRSEDTALYYCATGRYTSLATTYGFDYWGQGTLVTVSS
VL: EIVMTQSPATLSLSPGERATLSCRASQSVSRYLAWYQQKPGQAPRLLIYGASSRATGIPDRFSGSGSGTDFTLTISRLEPEDFAVYYCQQYDNWPYTFGQGTKLEIK
B10: E35-scFv LQ27E (scFv, V domains shown)
VH: QMQLVQSGAEVKKPGASVKVSCKVSGYTLTELSIHWVRQAPGKGLEWMGGFDPEDGETIYAQKFQGRVTMTGDTSTDTAYLELSSLRSEDTALYYCATGRYTSLATTYGFDYWGQGTLVTVSS
VL: EIVMTQSPATLSLSPGERATLSCRASESVSSYLAWYQQKPGQAPRLLIYGASSRATGIPDRFSGSGSGTDFTLTISRLEPEDFAVYYCQQYDNWPYTFGQGTKLEIK
B11: E35-scFv LQ27S (scFv, V domains shown)
VH: QMQLVQSGAEVKKPGASVKVSCKVSGYTLTELSIHWVRQAPGKGLEWMGGFDPEDGETIYAQKFQGRVTMTGDTSTDTAYLELSSLRSEDTALYYCATGRYTSLATTYGFDYWGQGTLVTVSS
VL: EIVMTQSPATLSLSPGERATLSCRASSSVSSYLAWYQQKPGQAPRLLIYGASSRATGIPDRFSGSGSGTDFTLTISRLEPEDFAVYYCQQYDNWPYTFGQGTKLEIK
B12: E35-scFv LS31P (scFv, V domains shown)
VH: QMQLVQSGAEVKKPGASVKVSCKVSGYTLTELSIHWVRQAPGKGLEWMGGFDPEDGETIYAQKFQGRVTMTGDTSTDTAYLELSSLRSEDTALYYCATGRYTSLATTYGFDYWGQGTLVTVSS
VL: EIVMTQSPATLSLSPGERATLSCRASQSVSPYLAWYQQKPGQAPRLLIYGASSRATGIPDRFSGSGSGTDFTLTISRLEPEDFAVYYCQQYDNWPYTFGQGTKLEIK
B13: E35-scFv LS31A (scFv, V domains shown)
VH: QMQLVQSGAEVKKPGASVKVSCKVSGYTLTELSIHWVRQAPGKGLEWMGGFDPEDGETIYAQKFQGRVTMTGDTSTDTAYLELSSLRSEDTALYYCATGRYTSLATTYGFDYWGQGTLVTVSS
VL: EIVMTQSPATLSLSPGERATLSCRASQSVSAYLAWYQQKPGQAPRLLIYGASSRATGIPDRFSGSGSGTDFTLTISRLEPEDFAVYYCQQYDNWPYTFGQGTKLEIK
B14: E35-scFv LQ27L (scFv, V domains shown)
VH: QMQLVQSGAEVKKPGASVKVSCKVSGYTLTELSIHWVRQAPGKGLEWMGGFDPEDGETIYAQKFQGRVTMTGDTSTDTAYLELSSLRSEDTALYYCATGRYTSLATTYGFDYWGQGTLVTVSS
VL: EIVMTQSPATLSLSPGERATLSCRASLSVSSYLAWYQQKPGQAPRLLIYGASSRATGIPDRFSGSGSGTDFTLTISRLEPEDFAVYYCQQYDNWPYTFGQGTKLEIK
B15: E35-scFv LQ27I (scFv, V domains shown)
VH: QMQLVQSGAEVKKPGASVKVSCKVSGYTLTELSIHWVRQAPGKGLEWMGGFDPEDGETIYAQKFQGRVTMTGDTSTDTAYLELSSLRSEDTALYYCATGRYTSLATTYGFDYWGQGTLVTVSS
VL: EIVMTQSPATLSLSPGERATLSCRASISVSSYLAWYQQKPGQAPRLLIYGASSRATGIPDRFSGSGSGTDFTLTISRLEPEDFAVYYCQQYDNWPYTFGQGTKLEIK
B16: E35-scFv LS31M (scFv, V domains shown)
VH: QMQLVQSGAEVKKPGASVKVSCKVSGYTLTELSIHWVRQAPGKGLEWMGGFDPEDGETIYAQKFQGRVTMTGDTSTDTAYLELSSLRSEDTALYYCATGRYTSLATTYGFDYWGQGTLVTVSS
VL: EIVMTQSPATLSLSPGERATLSCRASQSVSMYLAWYQQKPGQAPRLLIYGASSRATGIPDRFSGSGSGTDFTLTISRLEPEDFAVYYCQQYDNWPYTFGQGTKLEIK
B17: E35-scFv LQ27T (scFv, V domains shown)
VH: QMQLVQSGAEVKKPGASVKVSCKVSGYTLTELSIHWVRQAPGKGLEWMGGFDPEDGETIYAQKFQGRVTMTGDTSTDTAYLELSSLRSEDTALYYCATGRYTSLATTYGFDYWGQGTLVTVSS
VL: EIVMTQSPATLSLSPGERATLSCRASTSVSSYLAWYQQKPGQAPRLLIYGASSRATGIPDRFSGSGSGTDFTLTISRLEPEDFAVYYCQQYDNWPYTFGQGTKLEIK
B18: E35-scFv LS31H (scFv, V domains shown)
VH: QMQLVQSGAEVKKPGASVKVSCKVSGYTLTELSIHWVRQAPGKGLEWMGGFDPEDGETIYAQKFQGRVTMTGDTSTDTAYLELSSLRSEDTALYYCATGRYTSLATTYGFDYWGQGTLVTVSS
VL: EIVMTQSPATLSLSPGERATLSCRASQSVSHYLAWYQQKPGQAPRLLIYGASSRATGIPDRFSGSGSGTDFTLTISRLEPEDFAVYYCQQYDNWPYTFGQGTKLEIK
B19: E35-scFv LS31Q (scFv, V domains shown)
VH: QMQLVQSGAEVKKPGASVKVSCKVSGYTLTELSIHWVRQAPGKGLEWMGGFDPEDGETIYAQKFQGRVTMTGDTSTDTAYLELSSLRSEDTALYYCATGRYTSLATTYGFDYWGQGTLVTVSS
VL: EIVMTQSPATLSLSPGERATLSCRASQSVSQYLAWYQQKPGQAPRLLIYGASSRATGIPDRFSGSGSGTDFTLTISRLEPEDFAVYYCQQYDNWPYTFGQGTKLEIK
B20: E35-scFv LQ27C (scFv, V domains shown)
VH: QMQLVQSGAEVKKPGASVKVSCKVSGYTLTELSIHWVRQAPGKGLEWMGGFDPEDGETIYAQKFQGRVTMTGDTSTDTAYLELSSLRSEDTALYYCATGRYTSLATTYGFDYWGQGTLVTVSS
VL: EIVMTQSPATLSLSPGERATLSCRASCSVSSYLAWYQQKPGQAPRLLIYGASSRATGIPDRFSGSGSGTDFTLTISRLEPEDFAVYYCQQYDNWPYTFGQGTKLEIK

Target: T1, human GM-CSFRα, full length on cells (human, UniProt P15509 23-400)
T1 sequence: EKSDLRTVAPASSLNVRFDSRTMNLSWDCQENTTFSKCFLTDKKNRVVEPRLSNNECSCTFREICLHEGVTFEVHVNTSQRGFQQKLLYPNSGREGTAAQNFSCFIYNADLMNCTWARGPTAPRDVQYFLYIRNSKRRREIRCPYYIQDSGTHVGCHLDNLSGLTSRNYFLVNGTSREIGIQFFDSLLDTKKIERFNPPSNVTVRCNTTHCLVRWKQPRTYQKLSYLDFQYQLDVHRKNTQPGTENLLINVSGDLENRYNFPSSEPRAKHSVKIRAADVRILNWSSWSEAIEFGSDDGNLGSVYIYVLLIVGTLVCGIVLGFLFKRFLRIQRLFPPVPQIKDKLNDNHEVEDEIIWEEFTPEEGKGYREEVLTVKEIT
Assay: cell-based or functional assay

Binder	IC50, TF-1 cell proliferation
B1	0.0371 µg/mL
B2	0.0307 µg/mL
B3	0.0163 µg/mL
B4	0.0569 µg/mL

Target: T1, human GM-CSFRα, full length on cells
Assay: cell-based or functional assay
Remark: another data set of the same source

Binder	IC50, TF-1 cell proliferation
B5	0.06 µg/mL
B6	0.12 µg/mL
B7	0.113 µg/mL
B8	0.117 µg/mL
B9	0.069 µg/mL
B10	0.135 µg/mL
B11	0.138 µg/mL
B12	0.139 µg/mL
B13	0.078 µg/mL
B14	0.128 µg/mL
B15	0.105 µg/mL
B16	0.156 µg/mL
B17	0.113 µg/mL
B18	0.106 µg/mL
B19	0.117 µg/mL
B20	0.142 µg/mL
